Measurements: the NTF2 design screens of Basanta et al. (2020)

Test: protease stability score; higher = more stable; yeast display proteolysis, trypsin and chymotrypsin;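 also: relative to predicted unfolded state with 0 unfolded-like and 1 meaning tenfold more protease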

Sequence | protease stability score
SEEEEILHKMAEDNIQMLQTGDEETLKRLLDPNVRIHIGEFRTHGMEKLSHWLLHLRIRDIRIHSMRIIDGVADIDGTVEIEQGDKRHTVNMRIFIIVINGKNHSFIFRWH | 1.76
SEEEEILRHILERFANVLHTGDFDWLSKMADPHVRFDVNGREFHGREEVIQAVRDWRERLGIKHLHVKDIRLQGDKMHLNGRMEFDGVIEDTRIIHQVVDGRLRSIEIRTK | 0.16
SEEEEILRHIVELLLHILITGNEHALRTLLDPNARVDINGVTIHGREQESHIILEEVERIDHMDLKIEHLHVQGDKVHTKVERTIHIGEKEIRIEEEINLVIFNGRLRVSILHVH | 0.97
SEEEEILRIALEIFIHLWQTGDEDMLKHYADPEVRVHFDGRDYHGMNDLQFFVHELRKRYPGIRLHIEHVEIEVYNGRVFIIIHQRLDFNGQVITEEVRLIVIKINGRWDIHSVKYHSH | 0.756
SEEEEILRRSVEVTLEAFKTGNERILREYLDPHVRFLYNGQEYHGWKDFVRFLINEVRRFDHVEIRLDHWEMQGEKAHFHGRLILDVNGRLEIFRVHIHLFKVDGKWTLRELRIE | 1.83
SEEEEIMQRLLELMLQVFKTGDWKSLTDLLDPHVRLRIHQGDKTLHHHGREEFTERLRKLDEHLGVSRIDVRDHDMHEINGVLIIHLELRVNGRKVHVLILAEKIDGRWLLKSMHLVWH | 1.42
SEEEEIRLDLARLWLELVLTGDEQVYEKLADPNVRFDVNGRELHGRETWIDLLLQFKNVVKRIELKRLDVQGDFVVLDTRLRLVVNGRTETYETWIIFYVVNGRIKEVEIRTT | 1.31
SEEEEISKELARLWLHLFFTGNEEKLTELFDPNARLIVGDKQRHGRERVIKIFHEWLLELGIDYLDIHHIEFQGEKVHMNTKVRQGDFETRTEVNLIIVNGRIKEVRFDLR | 1.19
SEEEEISKTAIELMIRALHTGDWQHWLHLADPHYRVNINGREHHGREDSLRIINELLELLGVERVELRLEDFRVIDGRIHIITKMHYNGVVTDNRLIMKKVDGKWQLDTVIVT | 1.05
SEEEEIVEKMARDLFEAMRTGDEDTLLKLLDPNVKHHWNGVEYHGWHDLHHWVERFKNMKVHFRINSVKVIGEKVHIKGELNLIFNGKIIRTDVDIHINLFNGRIKESTSDTN | 2.04
SEEEEIVKRFIELLDHVMKTGDEKFYEHMADPNTRVKQGEFEDHGREAFRWFLKEIRSKDVKTEHVELFDGRLRVEGRLLGVFNGQHVELHMILISVKVDGRWRVKMVIIH | 1.52
SEEEEIVREALKIWFHAMITGDERTLNEMVDPNVRVDVDGKELIGRKHMVELLRRFKNITIRHWHIKHLDIQGDKIEIDTRLDVEVNGRQEILTEKFHARKVDGRWFLSTREER | 2.19
SEEEEIVRHANHLFTHAMNTGDWRLLKELFDPHTKILIDGQEHHGWSIIYRELRHIRIDHVEMRIRSVHTQGNKAHVDGEIIVEGTVNGVTHKTSNRVNLIIRKVDGRWIVESIDIH | 1.55
SEEEEIYHKLAEWSKRVLETGDWREWRKLADPNTRLHVHVNGRQLDHHGRELVLTIFLWLYKHLGVKHVDERDLDYYGNKIDIHVDDRYDGRTIHNRIILFIIDGKVTSTTVHIEHE | 1.38
SEEEEIYKEYAELMIHIIKTGDEDALRLLLDPNTQTFINGRNIHGMDEHIRHWRHFFKKFKNMRIEITRLEIQGDKVRIHMRIEQGDKILHLLFIIVIINGRNEEIEVRIHTQ | 1.69
SEEEEIYKRAHKFFADVFLTGNEKELEHMLDPNVRLHVNGQDHHGWTDVFRIFNFLGADHYDVKHLDIQGDKVDLHSEVDINGRTRRIIFHSLKVNGQWKITHVQVD | 1.24
SEEEEIYKRIADLFLQIFSTGDEDRLHRLADPDVKWEYGDKKNVGMKDVIHYFEHIWMHVERSDNTDVDLQGNKARVDMRSDIRIEINGRELRIKVSVLIIIVKFNGRWTVHSLRIE | 1.27
SEEEEKAKKWLEEVLRAEETGDEEKLLELADPNVRWIFNGVDVIGRKHFERNIRESLEKIPNMRIEHFHLHRMETIDGRIDMETEEDGIINGRDIRTRRRIIVVKVDGRWIIKSVHLI | 0.637
SEEEEKARRLSELITRSFLTGDEEELEELLDPNARNIYNGVIVHGREEVSRLFHEEWLRYGIDHVRLEDMHIDVQGDKVDFHIIMRSEFNGRVHHVRVEVHIEKVDGRWVMKRLELRFS | 0.977
SEEEEKAVKVTEEILHNLLTGDWERLAEMLDPDTWLHQGDKHRHGREQVLKHFSDFYNEIRIEDFKIHDITVQGEKAISHGHVKMRYGDKVRETSVRFVLIVIDGRIDQIEVHVH | 1.8
SEEEEKFHRFYKLLLEMILTGNWKEVWDLMDPNARLDVIIGDKSIHNHGWKVILEFMREIRIRHVHIKHMEVYNGRIHLDEHRDIHFNGRDIRSDVIIHAVVIDGRFHHERIEFL | 0.751
SEEEEKIKKLHTDWLHLLLTGDEDRLKQLMDPHAKISIEQGDFHLDLHGREDIIEFYWEERHRIDHLDIRVRHIEVWNGKIITKEENRIDFNGRKHVTEVDLEIEIVDGKFRSLHIRIH | 1.02
SEEEEKLKKILELLRHRILTGDEEFYSRLIDPNARVNIDGKTTHGREEMEHILRELNEDYGVKHHTVRSTEIFDGVNWIRGEFRVNGRSRTVEIIIWVYNGRLKSSEFRFD | 1.39
SEEEEKRRKSAEDFMRSLVTGDEDDLSRLADPHVRLDINGKEHHGMEEFKRLLSEFWEEMGIKHVRIRRIDIQGNKAILHTEVDWNGRIHEVTIDVQTYNGRIKSVKVIIH | 1.24
SEEEEKTRRILEELFELFLTGDEQRTLELFDPNMRFHLHYGDKELHLHGREEVAKFLHDHRHRVKNVKFHLKKEEVQGDKAILYIRVEIDGQEVYLNIEIHVIDGKLHEVVERIHEV | 2.25

Sequence | protease stability score
SEEEELADIALREIIETLRTGNEELLDKLVDPHVKILFDGREFIGRKDYLRLLREIRIHHVTIEDMEVQGEKVHINMRVDGEINGRRNDYKVQLIALKFNGKWIIEHEHLH | 1.3
SEEEELAERFYEKFLRLARTGDEDELKRLFDPHVRHYVDGRELIGRELLVKFLIEWRVHDSEIREVRIQGDKLWFNTVIHGNFNGVETKQEMEVRSRKIDGQWFATEVQIK | 0.694
SEEEELAERMIRIWQKDIRTGNEESLSKFIDPNVRNEYGDKTHHGRHVFADVIRRILDELGVTNVHSRLTRMEIQGDKVRVDVQINIDGQEYRIEVHFEKVNGRWNVTSWNIR | 0.698
SEEEELALKLLRVLWHHLETGDEETLNHLLDPDTRWNVDGVNFHGMRDFVRHFRERLKHARLHSLHVHRFSMINGVMHFDGEVNEIYGDKTERYRVRIELVVVNGRWKELYLHKI | 1.55
SEEEELALRFWHELTHYRETGDEESLLKYVDPHVRLDVNGKDIHGMEEIARFLVEIRVKIETHVHDIKLINGKIHMDVRLHIEFDIDGKNVKRRHESRVIVRKVNGKWIIKTFELT | 0.53
SEEEELAMRIAREVLELWYTGDEDRLTELADPNTRVIFQYGDKEISFHGREWYSKIMLEWRIERVDLRSERAIGDKYELDVHFVGHINGKRHNYRFHIHMLVVNGKLKNIEVRVK | 2.2
SEEEELAREAMRILIEAIVTGDEDEIRRLLDPHVRIEVHIGDKSIKNHGRESMVRILRWLGVDHIDIKRFRLEIQGEFLHLDLDTEFHFNGVTVRTRINNRSLKINGRWQTKEVKYFIE | 1.27
SEEEELARHAFELWTRSMLTGDEHTMEKLFDPNTRLDINGRDHVGRELFLEFIHRLLREWRFRDVKLEDVKSVNGVLFLKVRLDVEFDGRRYSLTVELIVTKINGKWHMTEIKMH | 0.353
SEEEELARHIFELWIKTLRTGDEKLLRELADPHVQVILLVDGRHLENHGWEEFVRIFKEWRIHRVHVHDVKVFENRIHMDGTIDYEIGDKRFITKRIVDLVVINGRLKRLEIQIH | 2.66
SEEEELARHSIEVMIRLYETGDWDSSVDMADPHTRVHINGRDLIGREFYSEWSKEHLKRYKNATIILEDHEVQGNKVKVRIRIIVGDKESEIIFYILKINGRWIWHTVEVR | 2.19
SEEEELARQVLELWIHWYQTGDEESFRKNIDPHTRFDINGKHLHGREHVSKHLHDRAREMRIHDVFIKDVRLQGEKARMDGVIDGTIGDKRHEFKVEVTVQSINGRIDHLEFRFR | 1.18
SEEEELATEIFRKWIELLETGDEHTFRELADPDYRLIILYGDFIINDIGRERAIERWKQHLKQFDHWEIIIDRERVVNGVVHVDGILVLRINGREHNRRVKIELFIFDGRMKEVDIHID | 2.6
SEEEELAVKMWEIWLRSFLTGDETRLDQMMDPHAKLERIINGKRQHTHGWENVLKELIRLADELRVEHIHIRSEHRQGEKLDVKGEIDGDINGVRRRVEVDIHLVIVDGRIRHVKEVIR | 1.12
SEEEELDKKAFKLWIHSLRTGDEDLITELADPRVKMTIGDKEFHGREEFKHAMHELLKRVDHIKDVKLKHWDVINGRLHVIVEVNGNVDGRETYIETSMTSLKINGRWILQSWSVR | 1.31
SEEEELDRRITDLIVHARKTGDEEMWQRYADPHVRLFWFQGDYLLMIVGREDASKWMRHLLEELGIKHIEFKHIDIFDGRSHIDSRVKVNGKERETRHQFVVVNGRITEVREKID | 0.415
SEEEELEEFFIHLMIRMWDTGDFRTFKRLADPNVRLEVNGRHVVGREEVERLLRELLELLGADVIIHRDRDRDKFNGVIVVIIHGQIRQGDKFFDTHLHFVIEKVDGRWLLKSIHIEIR | 1.5
SEEEELEERLTRYWLHAFWTGDWEHLKEMADPDARHRLHFENHTESVHGREYLVLIYVRIIRNLGFKHLEIDHVRVVDGVFRIHGILEVNGRKQRVHIIVVIVNGRLRELVLIFG | 1.41
SEEEELFEIAIRIFLHILHTGNEEDFHRFADPNMRMIIGDKEHHGWEEVFKWFEFVFRHARIKDTEIKSVRIINGRVHNEGRVNININGVEVIKEVHLVSEKVDGKWVLKRVEIR | 1.52
SEEEELFRKLVNLFLRDVLTGDEESLIELMDPDVRVDINGRKNVGWEEVANTWKQMRIRDFEYREVEYYNGQARIHGVRDGNINGVDERTEIEISMSIVDGRLKHVRVHVR | 2.09
SEEEELHDEHLKKIYTALLTGDFDTFRNMVDPHVRLDWNGVRLHGREVVVRTMIELGADHIEIKEVSFQGDKVDLHFREKVNGKEFRVRIEKQKFNGQWSISSEHQR | 1.14
SEEEELHEILLHLLLLMHTTGDEHLLRRLADPNARVDINGREWHGRDLMVKFLVEIRIHRTRIHDERDIDGRVHMETRVDGLWNGVRYTFDTRIHAVKVNGRWLLESYSVE | 1.21
SEEEELHRLLRERYIKNALTGNEKHLRRLADPNTRNNVNGRTHHGWDFYTDMISRLGADHVQIHDRHVDIQGEYIDVHLEVELNINGKHHRLDVRIIILKVDGKWTLHSFEML | 0.553
SEEEELIEYILELWMHAYVTGDEDVVHEMADPNVRIQVGDKKFIGRKTFSETIHELLNRVDHFRLHIRDYKVINGKAIMHIELHYRVNGKDIHHHVDIDVHKINGRWIVKSIHYR | 1.83
SEEEELIHILERLIIEFRRTGNEEAWMNLMDPHAKVEIGDFDLIGRDEVSRWLHHLRIDDIHITLRRFRDIDGRVISYGEENIRVDFNGQHVEFRRRSILILFKVDGQWYIESIHVH | 0.959
SEEEELLEHAYRHLIHTILTGDERLIEEMLDPNVRISIGEYHSHGREEAIRDVHELGIKHSERLHLTHVDSQGNKVRLHVEFVTNVNGVRRHVTVTWHIIKVNGKWYIESWDHQ | 1.83
